Reference: the supplement of paper PMC9876800

Tested on: peptide library, one residue held at a place counted from the S/T acceptor
Assay: relative phosphorylation of the sub-library (ratio to the mean residue at this position); higher = residue favoured
Settings: human
Outline: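 Human or orthologue kinase constructs, purified and recombinant, were incubated under kinase-specific conditions in 384-well plates with biotinylated degenerate peptide sub-libraries. Each sub-library fixed one residue at one position around a central Ser/Thr. Incubations lasted 90 min with peptides at 50 μM and 50 μM ATP spiked with γ-32P-ATP, after which spots on streptavidin membranes were phosphorimaged and quantified by densitometry. Relative sub-library phosphorylation is a ratio to the mean residue at that position.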

Chain of BMPR1B, construct: aa149-end (O00238 149-502, looked up): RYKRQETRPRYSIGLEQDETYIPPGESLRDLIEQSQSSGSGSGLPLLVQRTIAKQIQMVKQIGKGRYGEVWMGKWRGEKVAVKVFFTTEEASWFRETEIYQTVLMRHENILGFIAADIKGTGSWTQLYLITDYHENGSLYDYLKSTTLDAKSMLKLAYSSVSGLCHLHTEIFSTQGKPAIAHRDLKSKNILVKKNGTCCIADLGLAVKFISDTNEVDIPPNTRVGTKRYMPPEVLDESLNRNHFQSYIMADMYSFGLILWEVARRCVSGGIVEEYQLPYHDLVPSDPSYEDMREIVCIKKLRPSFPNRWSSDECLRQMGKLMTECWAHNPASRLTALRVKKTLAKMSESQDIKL
Chain of CAMK2A, construct: Full length (Q9UQM7 whole entry, looked up): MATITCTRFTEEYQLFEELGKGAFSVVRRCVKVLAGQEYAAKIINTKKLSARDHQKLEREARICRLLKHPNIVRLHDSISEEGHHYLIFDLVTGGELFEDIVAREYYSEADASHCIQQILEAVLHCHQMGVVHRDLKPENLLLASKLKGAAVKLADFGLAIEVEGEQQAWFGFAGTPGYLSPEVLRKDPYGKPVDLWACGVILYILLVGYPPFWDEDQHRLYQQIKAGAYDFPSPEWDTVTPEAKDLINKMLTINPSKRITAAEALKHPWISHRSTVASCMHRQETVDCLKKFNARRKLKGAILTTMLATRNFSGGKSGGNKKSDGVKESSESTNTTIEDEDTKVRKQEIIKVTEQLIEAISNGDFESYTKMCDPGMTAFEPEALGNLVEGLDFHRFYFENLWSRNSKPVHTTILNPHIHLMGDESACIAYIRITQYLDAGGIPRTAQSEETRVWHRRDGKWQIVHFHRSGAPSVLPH

PRKCB, construct: Full length (from UniProt P05771)
relative phosphorylation
Settings	at +1	at +2	at +3	at +4	at -1	at -2	at -3	at -4	at -5
A fixed	0.614	0.584	0.815	1.08	1.16	1.17	0.836	1.3	1.35
D fixed	0.203	0.219	0.509	0.604	0.516	0.531	0.379	0.694	0.677
E fixed	0.288	0.177	0.503	0.546	0.489	0.468	0.438	0.654	0.676
F fixed	0.881	0.35	0.602	0.636	0.435	0.597	0.639	0.72	0.947
G fixed	0.585	0.365	1.09	1.22	1.65	1.37	0.95	1.57	1.45
H fixed	0.861	1.39	1.36	1.37	1.24	1.23	1.47	1.17	1.26
I fixed	1.05	0.413	0.529	0.559	0.214	0.323	0.214	0.393	0.452
K fixed	2.49	3.97	2.36	2.46	2.15	1.93	1.91	1.64	1.67
L fixed	0.864	0.469	0.796	0.644	0.563	0.448	0.371	0.517	0.71
M fixed	1.61	0.604	0.68	0.705	0.779	0.662	0.606	0.898	0.684
N fixed	0.691	0.909	1.09	1.13	1.34	1.52	1.07	1.11	1.04
P fixed	0.289	0.305	0.606	1.27	1.09	0.87	0.983	1.2	1.22
Q fixed	1.45	0.727	1.1	1.2	1.04	1.47	1.08	1.24	1
R fixed	2.18	4.58	2.22	1.46	2.25	2.3	4.21	1.78	1.44
V fixed	1.11	0.443	0.627	0.683	0.496	0.462	0.354	0.504	0.695
W fixed	0.813	0.627	1.03	0.83	0.556	0.933	0.68	0.933	1.19
Y fixed	1.03	0.86	1.07	0.618	1.04	0.717	0.805	0.679	0.531
pThr fixed	0.842	0.433	0.621	0.672	0.372	0.756	0.666	0.932	0.844
pTyr fixed	0.519	0.272	0.651	0.434	0.732	0.712	0.693	0.806	0.983

CAMK2A, construct: Full length (from UniProt Q9UQM7)
relative phosphorylation
Settings	at +1	at +2	at +3	at +4	at -1	at -2	at -3	at -4	at -5
A fixed	0.609	0.742	0.885	0.931	0.81	1.37	0.689	1.08	0.921
D fixed	0.816	5.44	2.48	1.96	1.65	0.692	0.352	0.607	0.452
E fixed	1.32	2.31	2.59	1.81	1.16	0.765	0.464	0.985	0.461
F fixed	2.06	0.382	0.664	0.797	0.567	0.62	0.53	0.867	1.36
G fixed	0.59	0.713	1.11	1.11	0.789	1.02	0.591	0.941	0.758
H fixed	0.848	0.976	1.06	1.1	1.05	0.992	0.978	1.08	1.05
I fixed	1.09	0.334	0.431	0.511	0.374	0.31	0.369	0.656	0.866
K fixed	0.719	0.694	0.803	0.792	1.36	1.21	2.13	1.42	0.793
L fixed	1.09	0.331	0.642	0.513	0.629	0.4	0.378	0.733	1.79
M fixed	1.42	0.387	0.515	0.568	0.753	1.07	0.517	0.96	1.06
N fixed	0.955	1.02	1.06	0.977	1.65	1.09	0.706	0.689	0.618
P fixed	0.594	0.73	1.01	1.55	1.88	0.659	1.13	1.43	1.25
Q fixed	1.41	0.696	0.973	1	1.37	2.96	0.902	1.04	0.747
R fixed	0.735	0.781	0.762	0.557	1.02	1.47	5.38	1.4	1.27
V fixed	1.22	0.44	0.614	0.664	0.527	0.389	0.379	0.776	0.867
W fixed	0.527	0.452	0.634	1.15	0.5	1.21	0.837	1.31	1.59
Y fixed	1	0.574	0.774	1.01	0.905	0.765	0.665	1.02	1.15
pThr fixed	1.89	1.82	2.45	4.37	0.489	0.486	0.496	0.738	0.605
pTyr fixed	1.53	4.53	2.49	2.88	1.8	0.503	0.514	0.804	0.813

BMPR1B, construct: aa149-end (from UniProt O00238)
relative phosphorylation
Settings	at +1	at +2	at +3	at +4	at -1	at -2	at -3	at -4	at -5
A fixed	1.07	1.39	1.01	0.984	0.997	0.924	1.21	1.09	1.34
D fixed	1.83	1.33	1.58	0.977	1.64	2.17	2.03	2.24	1.67
E fixed	5.67	1.49	1.56	1.15	1.77	6.66	2.3	1.75	1.49
F fixed	0.422	0.61	0.873	1	0.771	0.382	0.596	0.674	0.73
G fixed	0.798	1.57	0.953	1.03	0.637	0.725	1.14	1.26	1.2
H fixed	0.552	0.988	0.857	0.895	0.919	0.493	0.923	0.855	0.972
I fixed	0.631	0.606	0.753	0.984	0.833	0.496	0.586	0.704	0.681
K fixed	0.404	1.04	0.655	1.14	0.73	0.386	0.69	0.818	0.938
L fixed	0.503	0.727	0.935	0.888	1.1	0.553	0.663	0.733	0.766
M fixed	0.62	0.757	0.869	0.949	1.29	0.497	0.773	0.86	0.798
N fixed	0.743	0.911	0.961	0.926	0.901	0.679	1.08	0.92	1
P fixed	0.344	1.38	1.13	1.21	0.627	0.499	0.977	0.998	1.09
Q fixed	0.676	0.809	0.945	0.981	0.965	0.702	1.07	1.01	0.839
R fixed	0.48	0.842	0.891	0.924	0.791	0.439	0.803	0.801	0.869
V fixed	1.2	0.664	0.97	0.908	1.02	0.581	0.697	0.769	0.921
W fixed	0.519	0.897	1.01	1.02	0.844	0.397	0.659	0.744	0.892
Y fixed	0.528	0.985	1.04	1.04	1.17	0.415	0.795	0.764	0.799
pThr fixed	6.15	2.16	1.11	1.13	1.03	2.23	2.34	1.67	1.35
pTyr fixed	1.18	0.924	1.3	0.928	1.8	0.801	1.81	1.51	1.41
